Here are results for 6 substances from US20140107021A1 (priority 2010, published 2014).

What all share (assay type): cell-based
Data set [1] has as its target T1, GLP-1 receptor (Homo sapiens, UniProt P43220).
T1 construct: expressed in transfected cells; host or cells: HEK293
Put plainly: cAMP induction at the GLP-1 receptor (agonist activity), firefly luciferase reporter assay in HEK293 cells. The conditions noted are these: for GLP-1R relative activity: Table 5, relative to standard. From the text:
(§1) HEK293 cells co-transfected with the receptor and luciferase gene linked to a cAMP responsive element were employed for the bioassay.
(§2) All EC50s and IC50s are reported in the following examples in nM, unless indicated otherwise.
In general terms: In a reporter assay the amount or activity of a reporter protein is the signal.

The target in data set [2] is glucagon receptor (Homo sapiens, UniProt P47871). Put plainly: cAMP induction at the glucagon receptor (agonist activity), luciferase reporter assay in HEK293 cells. Further details: expressed in transfected cells; host or cells: HEK293. To be noted: for EC50 / GR relative activity: Table 5; for EC50: read-out: GR EC50; for GR relative activity: relative to standard.
Description: as §1, §2

The target in data set [3] is T2, GIP receptor (Homo sapiens, UniProt P48546).
T2 construct: expressed in transfected cells; host or cells: HEK293
T2 sequence (P48546 22-466): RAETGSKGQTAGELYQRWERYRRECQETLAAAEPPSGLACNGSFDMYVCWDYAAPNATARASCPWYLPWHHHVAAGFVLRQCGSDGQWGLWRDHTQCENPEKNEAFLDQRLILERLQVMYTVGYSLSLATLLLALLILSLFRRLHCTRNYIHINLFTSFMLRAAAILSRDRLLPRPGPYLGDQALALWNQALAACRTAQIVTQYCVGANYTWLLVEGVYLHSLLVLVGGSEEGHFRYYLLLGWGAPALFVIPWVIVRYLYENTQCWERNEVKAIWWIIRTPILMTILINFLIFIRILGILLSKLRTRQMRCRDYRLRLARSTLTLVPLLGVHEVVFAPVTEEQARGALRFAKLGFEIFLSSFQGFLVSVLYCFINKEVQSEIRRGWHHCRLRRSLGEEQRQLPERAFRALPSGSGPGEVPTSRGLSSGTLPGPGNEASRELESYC
Put plainly: cAMP induction at the GIP receptor (agonist activity), luciferase reporter assay in HEK293 cells. The conditions noted are these: for GIPR relative activity: Table 5, relative to standard.
Description: as §1, §2

Bridge positions count the residues as written; N and C are the ends. Square brackets hold non-standard residues; d marks the D form. Side chains are listed from the residue outwards. Ends that are not written are not given here. PEG40kDa = 40 kDa polyethylene glycol; Ac‑Cys = acetylated cysteine; Aib = CC(C)(N)C(=O)O

Chain of glucagon receptor (P47871 26-477): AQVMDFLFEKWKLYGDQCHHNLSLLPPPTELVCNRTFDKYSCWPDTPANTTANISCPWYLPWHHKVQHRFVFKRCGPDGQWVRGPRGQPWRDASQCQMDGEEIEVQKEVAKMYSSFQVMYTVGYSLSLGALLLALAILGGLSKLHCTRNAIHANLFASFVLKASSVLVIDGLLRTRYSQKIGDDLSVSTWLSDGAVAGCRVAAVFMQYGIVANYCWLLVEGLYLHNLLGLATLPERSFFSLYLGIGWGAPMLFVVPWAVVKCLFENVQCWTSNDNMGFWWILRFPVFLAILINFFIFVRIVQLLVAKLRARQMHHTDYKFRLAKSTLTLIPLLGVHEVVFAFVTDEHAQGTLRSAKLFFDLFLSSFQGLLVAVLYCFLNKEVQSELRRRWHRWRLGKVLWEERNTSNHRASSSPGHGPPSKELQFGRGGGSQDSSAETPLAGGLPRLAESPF
T1 sequence (P43220 24-463): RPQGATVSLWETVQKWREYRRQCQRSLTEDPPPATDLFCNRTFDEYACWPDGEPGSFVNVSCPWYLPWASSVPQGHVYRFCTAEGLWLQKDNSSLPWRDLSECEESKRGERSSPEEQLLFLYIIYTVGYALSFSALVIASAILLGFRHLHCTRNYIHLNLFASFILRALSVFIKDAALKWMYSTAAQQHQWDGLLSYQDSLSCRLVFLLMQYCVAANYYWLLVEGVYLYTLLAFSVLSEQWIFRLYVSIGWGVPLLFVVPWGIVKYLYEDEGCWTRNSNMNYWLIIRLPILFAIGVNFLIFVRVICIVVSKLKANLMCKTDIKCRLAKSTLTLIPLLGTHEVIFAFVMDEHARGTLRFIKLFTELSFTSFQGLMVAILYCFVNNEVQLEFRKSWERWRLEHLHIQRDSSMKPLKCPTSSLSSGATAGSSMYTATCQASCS

In the case of “Y1Aib2I7I12K16Q17A18Aib20E21N24-LAG27-29-CEX-K (YXQGTFISDYSIYLDKQAAXEFVNWLLAGGPSSGAPPPSK; HELM PEPTIDE1{Y.[Aib].Q.G.T.F.I.S.D.Y.S.I.Y.L.D.K.Q.A.A.[Aib].E.F.V.N.W.L.L.A.G.G.P.S.S.G.A.P.P.P.S.K.[am]}$$$$V2.0; N-terminus assumed; SMILES CC[C@H](C)[C@H](NC(=O)[C@H](CO)NC(=O)[C@H](Cc1ccc(O)cc1)NC(=O)[C@H](CC(=O)O)NC(=O)[C@H](CO)NC(=O)[C@@H](NC(=O)[C@H](Cc1ccccc1)NC(=O)[C@@H](NC(=O)CNC(=O)[C@H](CCC(N)=O)NC(=O)C(C)(C)NC(=O)[C@@H](N)Cc1ccc(O)cc1)[C@@H](C)O)[C@@H](C)CC)C(=O)N[C@@H](Cc1ccc(O)cc1)C(=O)N[C@@H](CC(C)C)C(=O)N[C@@H](CC(=O)O)C(=O)N[C@@H](CCCCN)C(=O)N[C@@H](CCC(N)=O)C(=O)N[C@@H](C)C(=O)N[C@@H](C)C(=O)NC(C)(C)C(=O)N[C@@H](CCC(=O)O)C(=O)N[C@@H](Cc1ccccc1)C(=O)N[C@H](C(=O)N[C@@H](CC(N)=O)C(=O)N[C@@H](Cc1c[nH]c2ccccc12)C(=O)N[C@@H](CC(C)C)C(=O)N[C@@H](CC(C)C)C(=O)N[C@@H](C)C(=O)NCC(=O)NCC(=O)N1CCC[C@H]1C(=O)N[C@@H](CO)C(=O)N[C@@H](CO)C(=O)NCC(=O)N[C@@H](C)C(=O)N1CCC[C@H]1C(=O)N1CCC[C@H]1C(=O)N1CCC[C@H]1C(=O)N[C@@H](CO)C(=O)N[C@@H](CCCCN)C(N)=O)C(C)C) [MT-357]”, in data set [1] (Table 8), the “% Relative Activity GLP-1R” value is on record as 0.81%. Further, the “% Relative Activity at GR” value in data set [2] (Table 8) is recorded as 170%. The “% Relative Activity at GIPR” value in data set [3] (Table 8) amounted to 198%.

What is called EC50 is the concentration at which the effect is half-maximal. Substance “mt-217: lactam 16-20 glucagon analog, Lys24 carrying Ala spacer, acetylated Cys and 40 kDa PEG; SEQ ID NO: 19 (Y[Aib]QGTFTSDYSIYLDEQAAKEFVK([Ala-Ac‑Cys-PEG40kDa])FLLAGGPSSGAPPPS-NH2; lactam 16-20)” came in with a GLP-1R relative activity in data set [1] of 11.26%. In addition, in data set [2], the EC50 is 13.9 nM and the GR relative activity amounted to 0.82%. This substance yielded a GIPR relative activity in data set [3] of 0.20%.

Substance “mt-218: as mt-217 with Glu as the amino acid spacer; SEQ ID NO: 20 (Y[Aib]QGTFTSDYSIYLDEQAAKEFVK([Glu-Ac‑Cys-PEG40kDa])FLLAGGPSSGAPPPS-NH2; lactam 16-20)” displayed a GLP-1R relative activity in data set [1] of 7.40%. Besides, in data set [2], the EC50 came out at 16.3 nM and the GR relative activity was found to be 0.70%. The same substance had a GIPR relative activity in data set [3] of 0.13%.

Take “mt-219: as mt-217 with Arg as the amino acid spacer; SEQ ID NO: 21 (Y[Aib]QGTFTSDYSIYLDEQAAKEFVK([Arg-Ac‑Cys-PEG40kDa])FLLAGGPSSGAPPPS-NH2; lactam 16-20)”: the GLP-1R relative activity in data set [1] was found to be 16.56%. In data set [2], the EC50 came to 17.6 nM and the GR relative activity turned out to be 0.65%. Moreover, the GIPR relative activity entry in data set [3] is on record as “.31%”.

The substance “mt-220: as mt-217 with Phe as the amino acid spacer; SEQ ID NO: 22 (Y[Aib]QGTFTSDYSIYLDEQAAKEFVK([Phe-Ac‑Cys-PEG40kDa])FLLAGGPSSGAPPPS-NH2; lactam 16-20)” showed a GLP-1R relative activity in data set [1] of 13.89%. In data set [2], the EC50 was 9.67 nM and the GR relative activity is given as 1.18%. The same substance displayed a GIPR relative activity in data set [3] of 0.19%.

In data set [1], “mt-225: as mt-217 but modified Lys at position 40 and Asn at position 24; SEQ ID NO: 359 (Y[Aib]QGTFTSDYSIYLDEQAAKEFVNWLLAGGPSSGAPPPSK([Ala-Ac‑Cys-PEG40kDa])-NH2; lactam 16-20)” yielded a GLP-1R relative activity of 29.59%. In data set [2], the EC50 was 2.71 nM and the GR relative activity worked out at 1.99%. This substance registered a GIPR relative activity in data set [3] of 0.90%.
